Key:
human serum albumin = biological target: T1, human serum albumin (human, UniProt P02768 25-609); test: binding to human serum albumin, Fig. 19; method not described
T1 construct: Bought reagent; also called HSA

PSMA = PSMA (UniProt Q04609 1-750); test: cell-based or functional assay
BCMA = biological target: T2, BCMA (UniProt Q02223 1-184); test: cell-based or functional assay
T2 sequence (looked up): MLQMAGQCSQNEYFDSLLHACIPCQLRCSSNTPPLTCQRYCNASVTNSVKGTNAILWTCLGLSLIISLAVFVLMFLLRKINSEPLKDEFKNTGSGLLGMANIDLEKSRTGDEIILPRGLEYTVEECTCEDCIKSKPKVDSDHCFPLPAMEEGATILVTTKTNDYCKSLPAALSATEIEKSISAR

human ROR1 = human ROR1 (human, UniProt Q01973 30-937); test: cell-based or functional assay
human ROR1, sequence (Q01973 30-937): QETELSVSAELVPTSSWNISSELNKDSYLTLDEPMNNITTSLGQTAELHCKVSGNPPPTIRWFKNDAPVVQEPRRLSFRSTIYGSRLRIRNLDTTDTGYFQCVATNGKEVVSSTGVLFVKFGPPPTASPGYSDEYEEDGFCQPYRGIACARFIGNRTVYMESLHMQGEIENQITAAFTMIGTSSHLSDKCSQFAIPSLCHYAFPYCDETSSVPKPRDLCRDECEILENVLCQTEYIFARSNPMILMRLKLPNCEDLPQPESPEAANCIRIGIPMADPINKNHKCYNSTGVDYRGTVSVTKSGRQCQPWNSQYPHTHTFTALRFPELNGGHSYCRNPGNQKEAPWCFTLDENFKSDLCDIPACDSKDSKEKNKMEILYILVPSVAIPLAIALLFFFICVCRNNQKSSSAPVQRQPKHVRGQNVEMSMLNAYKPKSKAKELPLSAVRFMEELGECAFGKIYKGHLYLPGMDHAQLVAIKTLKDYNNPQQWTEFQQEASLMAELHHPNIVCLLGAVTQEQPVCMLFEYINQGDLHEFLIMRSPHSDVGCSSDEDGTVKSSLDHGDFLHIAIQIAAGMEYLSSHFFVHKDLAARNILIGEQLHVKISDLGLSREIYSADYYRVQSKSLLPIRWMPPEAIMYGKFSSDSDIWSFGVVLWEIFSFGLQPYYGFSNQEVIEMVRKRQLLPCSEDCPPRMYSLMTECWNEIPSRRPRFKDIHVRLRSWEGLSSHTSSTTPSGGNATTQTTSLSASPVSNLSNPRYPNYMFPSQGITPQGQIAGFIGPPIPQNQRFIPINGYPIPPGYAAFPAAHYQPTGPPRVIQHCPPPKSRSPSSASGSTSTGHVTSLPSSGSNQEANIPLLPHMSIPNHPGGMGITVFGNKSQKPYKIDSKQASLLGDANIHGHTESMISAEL

human B7H4 [1] = biological target: T3, human B7H4 (human, UniProt Q7Z7D3 25-282); test: cell-based or functional assay
T3 sequence (looked up): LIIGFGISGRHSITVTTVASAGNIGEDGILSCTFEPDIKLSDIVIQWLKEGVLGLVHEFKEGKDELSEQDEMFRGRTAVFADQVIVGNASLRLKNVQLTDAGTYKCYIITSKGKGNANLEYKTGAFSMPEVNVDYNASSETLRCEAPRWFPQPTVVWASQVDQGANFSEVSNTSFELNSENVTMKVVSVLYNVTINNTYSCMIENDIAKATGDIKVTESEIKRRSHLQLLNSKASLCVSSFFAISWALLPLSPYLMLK

human B7H4 [2] = biological target: T3, human B7H4; test: flow cytometry (FACS) on SK-BR-3 cells with high B7H4 expression

T1 sequence (P02768 25-609 limits assumed): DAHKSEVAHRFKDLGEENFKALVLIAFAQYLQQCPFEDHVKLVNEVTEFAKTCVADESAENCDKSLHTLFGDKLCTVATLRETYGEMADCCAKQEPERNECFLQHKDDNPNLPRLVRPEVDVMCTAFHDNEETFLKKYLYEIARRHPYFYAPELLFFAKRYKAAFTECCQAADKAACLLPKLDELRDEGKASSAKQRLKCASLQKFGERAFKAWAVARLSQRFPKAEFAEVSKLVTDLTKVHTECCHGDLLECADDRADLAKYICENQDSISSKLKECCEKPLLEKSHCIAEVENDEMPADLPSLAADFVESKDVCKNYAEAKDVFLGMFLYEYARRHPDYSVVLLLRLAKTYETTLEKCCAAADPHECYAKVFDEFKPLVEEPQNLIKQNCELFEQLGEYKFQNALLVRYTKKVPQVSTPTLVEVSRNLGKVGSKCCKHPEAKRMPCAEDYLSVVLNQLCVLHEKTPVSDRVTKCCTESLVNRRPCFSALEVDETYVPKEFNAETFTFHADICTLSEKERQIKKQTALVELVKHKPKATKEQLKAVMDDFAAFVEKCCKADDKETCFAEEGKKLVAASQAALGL
PSMA, sequence (Q04609 whole entry): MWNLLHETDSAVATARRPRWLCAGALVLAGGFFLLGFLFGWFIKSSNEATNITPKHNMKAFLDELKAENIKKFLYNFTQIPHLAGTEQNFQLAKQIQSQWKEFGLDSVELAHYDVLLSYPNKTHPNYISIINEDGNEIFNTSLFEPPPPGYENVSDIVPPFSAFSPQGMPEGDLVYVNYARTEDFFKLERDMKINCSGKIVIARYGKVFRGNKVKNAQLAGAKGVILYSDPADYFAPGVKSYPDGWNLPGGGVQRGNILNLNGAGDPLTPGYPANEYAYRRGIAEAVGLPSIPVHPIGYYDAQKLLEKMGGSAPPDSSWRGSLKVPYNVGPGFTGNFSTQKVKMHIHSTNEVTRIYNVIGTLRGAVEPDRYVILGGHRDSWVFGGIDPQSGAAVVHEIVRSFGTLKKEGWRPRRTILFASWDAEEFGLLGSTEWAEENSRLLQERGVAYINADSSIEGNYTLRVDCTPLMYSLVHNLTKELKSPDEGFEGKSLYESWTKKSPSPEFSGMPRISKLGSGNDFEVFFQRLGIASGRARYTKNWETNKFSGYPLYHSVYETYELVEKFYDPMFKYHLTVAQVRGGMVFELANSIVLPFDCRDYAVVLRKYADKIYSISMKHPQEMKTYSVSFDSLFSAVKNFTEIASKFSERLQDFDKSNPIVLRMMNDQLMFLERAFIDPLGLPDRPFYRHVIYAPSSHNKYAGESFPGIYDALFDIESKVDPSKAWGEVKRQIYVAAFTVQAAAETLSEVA

B1: PR000929 (VHH)
VHH: EVQLLESGGGLVQPGGSLRLSCAASGFTFRSFGMSWVRQAPGKGPEWVSSISGSGSDTLYADSVKGRFTISRDNSKNTLYLQMNSLRPEDTAVYYCTIGGSLSRSSQGTLVTVSS
notes: Humanized single-domain antibody, no Fc; also called anti-HSA Alb23-his; single-domain antibody Alb23
Human serum albumin
  binding result: binds

B2: PR001197 (bispecific antibody)
chain 1: QVQLVESGGGLVKPGESLRLSCAASGFTFSDYYMYWVRQAPGKGLEWVAIISDGGYYTYYSDIIKGRFTISRDNAKNSLYLQMNSLKAEDTAVYYCARGFPLLRHGAMDYWGQGTLVTVSSASTKGPSVFPLAPSSKSTSGGTAALGCLVKDYFPEPVTVSWNSGALTSGVHTFPAVLQSSGLYSLSSVVTVPSSSLGTQTYICNVNHKPSNTKVDKKVEPKSC
chain 2: DIQMTQSPSSLSASVGDRVTITCKASQNVDTNVAWYQQKPGQAPKSLIYSASYRYSDVPSRFSGSASGTDFTLTISSVQSEDFATYYCQQYDSYPYTFGGGTKLEIKRTVAAPSVFIFPPSDEQLKSGTASVVCLLNNFYPREAKVQWKVDNALQSGNSQESVTEQDSKDSTYSLSSTLTLSKADYEKHKVYACEVTHQGLSSPVTKSFNRGECEVQLVESGGGLVQPGGSLKLSCAASGFTFNTYAMNWVRQASGKGLEWVGRIRSKYNNYATYYADSVKDRFTISRDDSKSTLYLQMNSLKTEDTAVYYCVRHGNFGNSYVSWFAYWGQGTLVTVSSASTKGPSVFPLAPSSKSTSGGTAALGCLVKDYFPEPVTVSWNSGALTSGVHTFPAVLQSSGLYSLSSVVTVPSSSLGTQTYICNVNHKPSNTKVDKKVEPKSC
light: QAVVTQEPSLTVSPGGTVTLTCRSSTGAVTTSNYANWVQQKPGQAPRGLIGGTNKRAPWTPARFSGSLLGDKAALTLLGAQPEDEAEYFCALWYSNLWVFGGGTKLTVLGQPKAAPSVTLFPPSSEELQANKATLVCLISDFYPGAVTVAWKADSSPVKAGVETTTPSKQSNNKYAASSYLSLTPEQWKSHRSYSCQVTHEGSTVEKTVAPTECS
PSMA
  Cell killing EC50: 0.143 nM
  Maximum killing rate (%): 52.4%

B3: PR001198 (bispecific antibody)
chain 1: QVQLVQSGAEVKKPGSSVKVSCKASGGTFSNYWMHWVRQAPGQGLEWMGATYRGHSDTYYNQKFKGRVTITADKSTSTAYMELSSLRSEDTAVYYCARGAIYDGYDVLDNWGQGTLVTVSSASTKGPSVFPLAPSSKSTSGGTAALGCLVKDYFPEPVTVSWNSGALTSGVHTFPAVLQSSGLYSLSSVVTVPSSSLGTQTYICNVNHKPSNTKVDKKVEPKSC
chain 2: not shown
light: B2 light
BCMA
  Cell killing EC50: 0.0178 nM
  Maximum killing rate (%): 61.3%

B4: PR001200 (bispecific antibody)
chain 1: EVQLVESGGGLVQPGRSLRLSCTASGSDINDYPITWVRQAPGQGLEWIGFINSGGSTWYASWVKGRFTISRDDSKSIAYLQMNSLKTEDTAVYYCARGYSTYYRDFNIWGQGTLVTVSSASTKGPSVFPLAPSSKSTSGGTAALGCLVKDYFPEPVTVSWNSGALTSGVHTFPAVLQSSGLYSLSSVVTVPSSSLGTQTYICNVNHKPSNTKVDKKVEPKSC
chain 2: DIQMTQSPSSLSASVGDRVTINCQASQSIDSNLAWFQQKPGQPPKLLIYRASNLASGVPDRFSGSGSGTDFTLTISSLEAEDVATYYCLGGVGAVSYRTSFGGGTKVEIKRTVAAPSVFIFPPSDEQLKSGTASVVCLLNNFYPREAKVQWKVDNALQSGNSQESVTEQDSKDSTYSLSSTLTLSKADYEKHKVYACEVTHQGLSSPVTKSFNRGECEVQLVESGGGLVQPGGSLKLSCAASGFTFNTYAMNWVRQASGKGLEWVGRIRSKYNNYATYYADSVKDRFTISRDDSKSTLYLQMNSLKTEDTAVYYCVRHGNFGNSYVSWFAYWGQGTLVTVSSASTKGPSVFPLAPSSKSTSGGTAALGCLVKDYFPEPVTVSWNSGALTSGVHTFPAVLQSSGLYSLSSVVTVPSSSLGTQTYICNVNHKPSNTKVDKKVEPKSC
light: B2 light
Human ROR1
  Cell killing EC50: 1.16 nM
  Maximum killing rate (%): 54.8%

B5: PR000317 (bispecific antibody)
chain 1: EVQLVQSGAEVKKPGASVKVSCKASGYTFTSYWIGWVRQAPGQGLEWIGDIYPGGGYTNYNEKFKGRVTITRDTSTSTAYLELSSLRSEDTAVYYCARLAGSSYRGAMDSWGQGTLVTVSSASTKGPSVFPLAPSSKSTSGGTAALGCLVKDYFPEPVTVSWNSGALTSGVHTFPAVLQSSGLYSLSSVVTVPSSSLGTQTYICNVNHKPSNTKVDKKVEPKSC
chain 2: DIQMTQSPSSLSASVGDRVTITCKASQGFNKYVAWYQQKPGKAPKLLIYYTSTLQPGVPSRFSGSGSGRDYTLTISSLQPEDFATYYCLQYGDLLYAFGQGTKVEIKRTVAAPSVFIFPPSDEQLKSGTASVVCLLNNFYPREAKVQWKVDNALQSGNSQESVTEQDSKDSTYSLSSTLTLSKADYEKHKVYACEVTHQGLSSPVTKSFNRGECEVQLVESGGGLVQPKGSLKLSCAASGFTFNTYAMNWVRQAPGKGLEWVARIRSKYNNYATYYADSVKDRFTISRDDSQSILYLQMNNLKTEDTAMYYCVRHGNFGNSYVSWFAYWGQGTLVTVSAASTKGPSVFPLAPSSKSTSGGTAALGCLVKDYFPEPVTVSWNSGALTSGVHTFPAVLQSSGLYSLSSVVTVPSSSLGTQTYICNVNHKPSNTKVDKKVEPKSC
light: QAVVTQESALTTSPGETVTLTCRSSTGAVTTSNYANWVQEKPDHLFTGLIGGTNKRAPGVPARFSGSLIGDKAALTITGAQTEDEAIYFCALWYSNLWVFGGGTKLTVLGQPKAAPSVTLFPPSSEELQANKATLVCLISDFYPGAVTVAWKADSSPVKAGVETTTPSKQSNNKYAASSYLSLTPEQWKSHRSYSCQVTHEGSTVEKTVAPTECS
notes: Three-chain Fab-Fab without Fc; N-terminal Fab-A from PR000157 (anti-B7H4), C-terminal Fab-B from PR000260 (anti-CD3 SP34); also called Anti-B7H4xCD3 1D11-SP34 Fab-Fab; B7H4xCD3 "κ/λ" Fab-Fab antibody
Human B7H4 [1]
  Cell killing EC50: 0.0018 nM
  Maximum killing rate (%): 33.9%
Human B7H4 [2]
  EC50: 22 nM

B6: PR001325 (bispecific antibody)
chain 1: B5 chain 1
chain 2: DIQMTQSPSSLSASVGDRVTITCKASQGFNKYVAWYQQKPGKAPKLLIYYTSTLQPGVPSRFSGSGSGRDYTLTISSLQPEDFATYYCLQYGDLLYAFGQGTKVEIKRTVAAPSVFIFPPSDEQLKSGTASVVCLLNNFYPREAKVQWKVDNALQSGNSQESVTEQDSKDSTYSLSSTLTLSKADYEKHKVYACEVTHQGLSSPVTKSFNRGECEVQLVESGGGLVQPGGSLKLSCAASGFTFNTYAMNWVRQASGKGLEWVGRIRSKYNNYATYYADSVKDRFTISRDDSKSTLYLQMNSLKTEDTAVYYCVRHGNFGNSYVSWFAYWGQGTLVTVSSASTKGPSVFPLAPSSKSTSGGTAALGCLVKDYFPEPVTVSWNSGALTSGVHTFPAVLQSSGLYSLSSVVTVPSSSLGTQTYICNVNHKPSNTKVDKKVEPKSCGGGGSGGGGSEVQLLESGGGLVQPGGSLRLSCAASGFTFRSFGMSWVRQAPGKGPEWVSSISGSGSDTLYADSVKGRFTISRDNSKNTLYLQMNSLRPEDTAVYYCTIGGSLSRSSQGTLVTVSS
light: B2 light
notes: no Fc; also called anti-B7H4xCD3 1D11C2-hzSP34_PR512 Fab-Fab-(G4S)2-Alb23; B7H4xCD3xALB trispecific antibody
Human serum albumin
  binding result: binds

— EP4640700A1 (Harbour Biomed (Shanghai) Co., Ltd, dated 2025)
